Here are results for two molecules from patent publication US20140242073A1, “CARTILAGE/BONE DESTRUCTION SUPPRESSOR” (priority 2011, published 2014).

One data set concerns cartilage cells. Particulars: intra-articular administration, Nakazawa et al. 2002; cited from earlier work.
The test system of data set [1] is thioglycolate-induced peritoneal macrophages. The data set can be described thus: Flow cytometry reactivity of antibody with peritoneal macrophages. Particulars: Lewis rat peritoneal macrophages, co-stained anti-CD11b/c. Type of data set: binding, Lewis rats. The method, then: (§1) After the end of reaction, stainability was measured using a flow cytometer. […], 3% thioglycolate was intraperitoneally administered to Lewis rats, and peritoneal macrophages were collected 4 days later. The negative control antibody or the 4A67 antibody was added to the macrophages adjusted to 1×10^5 for the same reaction as above, followed by further adding an anti-CD11b/c antibody labeled with phycoerythrin or the negative control antibody labeled with phycoerythrin for reaction. After the reaction, stainability was measured using a flow cytometer.

Data set [2] concerns rat FR-β-expressing B300-19. The data set can be described thus: Flow cytometry reactivity of antibody with FR-β-expressing B300-19 cells. Format: binding. Particulars: 1×10^5 cells, APC-labeled anti-mouse IgM. As for the experimental part: The resultant hybridomas were cloned by limiting dilution culture adjusted to 1 cell per well of a 96-well plate. The cloned cells were sorted by reactivity with FR-β-expressing cells. The isotype of the mouse monoclonal antibodies was determined using a mouse immunoglobulin isotyping ELISA kit (Pharmingen). As a result, the mouse anti-rat FR-β monoclonal antibodies obtained were IgM-type clone 4A67. The reactivity of these antibodies to the antigen was analyzed by flow cytometry.
as §1

`C[C@H]1C[C@@H]2[C@H]([C@@H](O)C[C@@]3(C)[C@H]2CC[C@]3(O)C(=O)CO)[C@@]2(C)C=CC(=O)C=C12` [Steroid, methylprednisolone]: the “apoptotic death of cartilage cells” value in the data set on cartilage cells is on record as “causes the apoptotic death of cartilage cells”.

B1: 4A67: IgM-type mouse anti-rat FR-β monoclonal antibody (antibody, V domains shown)
VH: QIQLVQSGPELKKPGETVKISCKASGYTFTNYGMNWVKQAPGKGLKWMGWINTYTGEPTYTDDFKGRFAFSLETSASTAYLQINNLKNEDMATYFCARKGAMDYWGQGTSVTVSS
VL: QIVLTQSPAIMSASPGEKVTMTCSASSSVSYMHWYQQKSGTSPKRWIYDTSKLASGVPARFSGSGSGTSYSLTISSMEAEDAATYYCQQWSSNPPTFGSGTKLEIK
As for B1, in data set [1], the “reactivity with thioglycolate-induced peritoneal macrophages” value was “reacts”. Besides, the “reactivity with rat FR-β-expressing B300-19” value in data set [2] is recorded as “reacts”.
